From article PMC3247018 (Journal of molecular biology, 2011)

B1: bacteriophage lambda gpNu3 scaffolding protein (natural protein, UniProt P03711-2 1-131, looked up)
chain: MTKETQSTTVSATASQADVTDVVPATEGENASAAQPDVNAQITAAVAAENSRIMGILNCEEAHGREEQARVLAETPGMTVKTARRILAAAPQSAQARSDTALDRLMQGAPAPLAAGNPASDAVNDLLNTPV
B2: bacteriophage lambda gpE major capsid protein (natural protein, UniProt P03713 1-341, looked up)
chain: MSMYTTAQLLAANEQKFKFDPLFLRLFFRESYPFTTEKVYLSQIPGLVNMALYVSPIVSGEVIRSRGGSTSEFTPGYVKPKHEVNPQMTLRRLPDEDPQNLADPAYRRRRIIMQNMRDEELAIAQVEEMQAVSAVLKGKYTMTGEAFDPVEVDMGRSEENNITQSGGTEWSKRDKSTYDPTDDIEAYALNASGVVNIIVFDPKGWALFRSFKAVKEKLDTRRGSNSELETAVKDLGKAVSYKGMYGDVAIVVYSGQYVENGVKKNFLPDNTMVLGNTQARGLRTYGCIQDADAQREGINASARYPKNWVTTGDPAREFTMIQSAPLMLLADPDEFVSVQLA

Columns and labels:
[1] = biological target: bacteriophage lambda gpNu3 scaffolding protein (bacteriophage lambda) (UniProt P03711); experiment: AUC
[2] = biological target: B2; experiment: SEC
SEC = biological target: the molecule itself; experiment: SEC

bacteriophage lambda gpNu3 scaffolding protein (from UniProt P03711-2 1-131) (natural protein)
stoichiometry N [1]: 2

B1
binding result [2]: binds

B2
binding result (SEC): binds
